Results on 40 molecules are retold here after patent US8278415B2 (Centocor, Inc., dated 2012).

The first assay concerns the target sEGFR-MMB (human). Nature of the assay: phage ELISA on coated sEGFR-MMB, chemiluminescence (background typically <200 units). Background: ELISA stands for enzyme-linked immunosorbent assay.
As to KHCILFEKTVYCAK [S18 library phage peptide of SEQ ID NO: 26], the ELISA came out at 9110 units. RGCVVFGDNIYCIV [S18 library phage peptide of SEQ ID NO: 35] had an ELISA of 22000 units. On to SDCVLFGSKLFCSA [S18 library phage peptide of SEQ ID NO: 32], for which the ELISA came out at 35300 units.

Turning to RDCIIFDKTVYCVI [S18 library phage peptide of SEQ ID NO: 25], the ELISA came out at 17100 units.

As to YDCVSFGAVAYCPQ [S18 library phage peptide of SEQ ID NO: 34], the ELISA was 3200 units.

Regarding TDCVIFGLETYCLR [P173], the ELISA turned out to be 37900 units. Still for that read-out and setting: with AYCSFVAGDLVCQV [S18 library phage peptide of SEQ ID NO: 30] the figure was 19800 units; with TDCIRFGVLWYCLV [S18 library phage peptide of SEQ ID NO: 28], 4750 units.

Take AKCIAFGNSVYCLN [S18 library phage peptide of SEQ ID NO: 24]: the ELISA was 31500 units. DSCIQFANLLYCAI [S18 library phage peptide of SEQ ID NO: 27] showed an ELISA of 53200 units. The same measure, in the same setting: the result for AGCIAFVDVVYCAR [S18 library phage peptide of SEQ ID NO: 23] reads 6380 units; that for RACITFGKVVYCEV [S18 library phage peptide of SEQ ID NO: 29], 30700 units.

In the case of TDCVRFGETIYCIV [S18 library phage peptide of SEQ ID NO: 33], the ELISA worked out at 13300 units.

Another assay concerns the target sEGFR-MMB (human). The description is as above. This is another data set of the same source.
For the molecule GPCVLIRDYYLLCLE [P179], the ELISA came out at 14000 units. Still for that read-out and setting: with CDCREAVSASLVCRY [S19 library phage peptide of SEQ ID NO: 41] the figure was 3350 units. YDCMIRADGSLICWC [S19 library phage peptide of SEQ ID NO: 38]: the ELISA was determined as 1290 units. On the same count and under the same terms, with MICYLVDSGNIICYK [P180] the figure was 8810 units; with AFCRLDFNQWLTCLV [S19 library phage peptide of SEQ ID NO: 40], 2580 units.

The next assay has as its target sEGFR-MMB (human). The assay is described as above. The source holds these as a separate data set.
SVCVGTAFPGWMVCGP [S20 library phage peptide of SEQ ID NO: 47] returned an ELISA of 4770 units. On the same count and under the same terms, the result for YICTPSDIDSWYICYL [S20 library phage peptide of SEQ ID NO: 46] reads 6620 units; that for DSCCSFLTDGTVVCSL [S20 library phage peptide of SEQ ID NO: 45], 9540 units; that for KTCVSTTFDLWFVCFA [P176], 37400 units. Same read-out and setting: with WMCFLEGYGASLMCQC [S20 library phage peptide of SEQ ID NO: 44] the figure was 4800 units.

The molecule LLCATTSFRDWFVCFT [S20 library phage peptide of SEQ ID NO: 49] showed an ELISA of 4510 units.

Molecule PTCDSATRRVLTICAD [S20 library phage peptide of SEQ ID NO: 43] gave an ELISA of 5420 units.

For a further assay, the target named is sEGFR-MMB (human). Described as above. This is another data set of the same source.
Sequence of sEGFR-MMB (human) (chain, as listed by the source limits assumed): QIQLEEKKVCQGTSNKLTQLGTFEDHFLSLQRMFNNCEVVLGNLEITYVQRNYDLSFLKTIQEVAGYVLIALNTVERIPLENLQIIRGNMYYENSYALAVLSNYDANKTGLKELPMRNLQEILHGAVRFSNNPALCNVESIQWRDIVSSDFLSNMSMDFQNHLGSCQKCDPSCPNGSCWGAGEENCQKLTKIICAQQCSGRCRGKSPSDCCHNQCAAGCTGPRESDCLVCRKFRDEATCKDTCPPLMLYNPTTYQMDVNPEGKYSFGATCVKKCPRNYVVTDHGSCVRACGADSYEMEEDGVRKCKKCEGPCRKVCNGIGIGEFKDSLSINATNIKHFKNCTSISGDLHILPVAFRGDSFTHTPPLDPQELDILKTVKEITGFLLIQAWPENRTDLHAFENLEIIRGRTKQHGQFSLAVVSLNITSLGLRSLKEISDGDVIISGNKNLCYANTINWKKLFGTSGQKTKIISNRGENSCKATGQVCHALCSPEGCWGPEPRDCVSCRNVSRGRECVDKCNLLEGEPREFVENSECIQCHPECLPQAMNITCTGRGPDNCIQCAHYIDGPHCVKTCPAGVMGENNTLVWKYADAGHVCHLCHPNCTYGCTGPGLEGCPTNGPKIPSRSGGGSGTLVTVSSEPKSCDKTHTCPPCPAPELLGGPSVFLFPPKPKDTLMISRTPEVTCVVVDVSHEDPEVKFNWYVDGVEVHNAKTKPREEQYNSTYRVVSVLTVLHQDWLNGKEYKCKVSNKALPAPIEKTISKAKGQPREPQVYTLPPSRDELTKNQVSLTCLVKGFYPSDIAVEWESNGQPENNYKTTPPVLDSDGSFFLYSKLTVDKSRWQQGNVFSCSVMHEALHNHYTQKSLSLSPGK
DACTMVFLWCSL [P177] yielded an ELISA of 8660 units.

SGCLDALWQCVY [P174]: the ELISA worked out at 34600 units.

In the case of RWCYFWWITICEL [P178], the ELISA is 7910 units.

Another assay deals with sEGFR-MMB (human). The assay is described as above. The source holds these as a separate data set.
GADTLPDLLCWESSL [S15 library phage peptide of SEQ ID NO: 19]: the ELISA came out at 5720 units. The same measure, in the same setting: with PIDDESLPVLYCVTS [S15 library phage peptide of SEQ ID NO: 17] the figure was 1780 units. The same measure, in the same setting: the result for ELGLPTLLCWPTDTL [S15 library phage peptide of SEQ ID NO: 11] reads 9380 units; that for LPDLICAVDSGTSGA [S15 library phage peptide of SEQ ID NO: 21], 1160 units. With TVFTLPELVCVVAGT [S15 library phage peptide of SEQ ID NO: 20], the ELISA came out at 1520 units.

In turn, HVSLQSLPELICVVS [S15 library phage peptide of SEQ ID NO: 14] displayed an ELISA of 1360 units. Same read-out and setting: with STITSLPTLQCWPIL [S15 library phage peptide of SEQ ID NO: 16] the figure was 13300 units; with LPDDSLPELICKVRG [P175], 6790 units. The same measure, in the same setting: with PIFSSLPVLYCTSQL [S15 library phage peptide of SEQ ID NO: 18] the figure was 1420 units.

Regarding NWFSLPTLLCFPLNP [S15 library phage peptide of SEQ ID NO: 15], the ELISA is 3670 units. Molecule VSGILPILVCHPAAT [S15 library phage peptide of SEQ ID NO: 12] registered an ELISA of 1110 units. In turn, YRLFVDESIFFCTRL [S15 library phage peptide of SEQ ID NO: 10] returned an ELISA of 3080 units.
